In the RNAGym collection of RNA variant scans (doi:10.1073/pnas.2313332121):

B1: TPR t1 (parent)
chain: GACCAAUCUGCCCUCAGAGCUCGAGAACAUCUUCGGAUGCAGAGGAGGCAGGCUUCGGUGGCGCGAUAGCGCCAACGUCCUCAACCUCCAAUGCAUCCCACCACAUGAUGAUGCCUGAAGAGCCUUGGUUUUUUG

Variants of: B1
Assay: polymerase ribozyme fitness, log enrichment relative to wild type (log ratio); higher = more active; in vitro selection for triplet polymerase activity
In short: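 Mutant libraries for each subunit of a heterodimeric triplet polymerase ribozyme were made by PCR and then transcribed. Each library underwent one round of in vitro selection in triplicate: annealing with a biotinylated primer, the partner subunit and triplets, frozen incubation at −7 °C, gel excision of extended constructs, streptavidin-bead capture and RT-PCR. Input and output libraries were Illumina-sequenced, and only genotypes with ≥10 input reads and ≥1 read per output were kept. Fitness is the logarithm, base 2, of genotype enrichment over wild-type enrichment, computed from inverse-variance-weighted replicate averages.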

| Variant | polymerase ribozyme fitness (log ratio) |
| --- | --- |
| GACCAAUCUGCCCUCAGAGCUCGAGAACAUCUUCGGAUGCAGAGGAGGCAGGCUUCGGUGGCGCGAUAGCGCCAACGUCCUCAACCUCCAAUGCAUCUCACCACAUGAUGAUGCCUGAAGAGCCUUGGUUUUUUG [C98U] | -1.2 |
| GACCAAUCUGCCCUCAGAGCUCGAGAACAUCUUCGGAUGCAGAGGAGGCAGGCUUCGGUGGCGCGAUAGCGCCAACGUCCUCAACCUCCAAUGCAUCGCACCACAUGAUGAUGCCUGAAGAGCCUUGGUUUUUUG [C98G] | -5.78 |
| GACCAAUCUGCCCUCAGAGCUCGAGAACAUCUUCGGAUGCAGAGGAGGCAGGCUUCGGUGGCGCGAUAGCGCCAACGUCCUCAACCUCCAAUGCAUCCUACGACAUGAUGAUGCCUGAAGAGCCUUGGUUUUUUG [C99U C102G] | -6.32 |
| GACCAAUCUGCCCUCAGAGCUCGAGAACAUCUUCGGAUGCAGAGGAGGCAGGCUUCGGUGGCGCGAUAGCGCCAACGUCCUCAACCUCCAAUGCAUCCCCCCACAUGAUGAUGCCUGAAAAACCUUGGUUUUUUG [A100C G120A G122A] | -1.28 |
| GACCAAUCUGCCCUCAGAGCUCGAGAACAUCUUCGGAUGCAGAGGAGGCAGGCUUCGGUGGCGCGAUAGCGCCAACGUCCUCAACCUCCAAUGCAUCCGACCACAUGAUCAUGCCUGAAGAGCCUUGGUUUUUUG [C99G G110C] | -7.23 |
| GACCAAUCUGCCCUCAGAGCUCGAGAACAUCUUCGGAUGCAGAGGAGGCAGGCUUCGGUGGCGCGAUAGCGCCAACGUCCUCAACCUCCAAUGCAUCUCACAACAUGAUGGUGCCUGAAGGACCUUGGUUUUUUG [C98U C102A A111G A121G G122A] | -5.08 |
| GACCAAUCUGCCCUCAGAGCUCGAGAACAUCUUCGGAUGCAGAGGAGGCAGGCUUCGGUGGCGCGAUAGCGCCAACGUCCUCAACCUCCAAUGCAUCCCCCCACAUGAUGAUGCCUGAAGAACCUUGGUUUUUUG [A100C G122A] | -1.49 |
| GACCAAUCUGCCCUCAGAGCUCGAGAACAUCUUCGGAUGCAGAGGAGGCAGGCUUCGGUGGCGCGAUAGCGCCAACGUCCUCAACCUCCAAUGCAUCCUACCACAUGAUGAUGCCUGGAGAGCCUUGGUUUUUUG [C99U A118G] | -2.48 |
| GACCAAUCUGCCCUCAGAGCUCGAGAACAUCUUCGGAUGCAGAGGAGGCAGGCUUCGGUGGCGCGAUAGCGCCAACGUCCUCAACCUCCAAUGCAUCGCACCACAUGAUGAUGCCUGAAAAGCCUUGGUUUUUUG [C98G G120A] | -4.76 |
| GACCAAUCUGCCCUCAGAGCUCGAGAACAUCUUCGGAUGCAGAGGAGGCAGGCUUCGGUGGCGCGAUAGCGCCAACGUCCUCAACCUCCAAUGCAUCUCACCACAUGAUGAUGACUGAAGAGCCUUGGUUUUUUG [C98U C114A] | -3.47 |
| GACCAAUCUGCCCUCAGAGCUCGAGAACAUCUUCGGAUGCAGAGGAGGCAGGCUUCGGUGGCGCGAUAGCGCCAACGUCCUCAACCUCCAAUGCAUCCUACCACAUGAUGAUGCCUGAAGAGCCUUGGUUGUUUG [C99U U131G] | -3.59 |
| GACCAAUCUGCCCUCAGAGCUCGAGAACAUCUUCGGAUGCAGAGGAGGCAGGCUUCGGUGGCGCGAUAGCGCCAACGUCCUCAACCUCCAAUGCAUCCUACCACAUGAUGAUGCCUGAAGAGCCUUGGUUCUUUG [C99U U131C] | -2.72 |
| GACCAAUCUGCCCUCAGAGCUCGAGAACAUCUUCGGAUGCAGAGGAGGCAGGCUUCGGUGGCGCGAUAGCGCCAACGUCCUCAACCUCCAAUGCAUCACACCACAUGAUGAUGCCUGAACAGCCUUGGUUUUUUG [C98A G120C] | -4.15 |
| GACCAAUCUGCCCUCAGAGCUCGAGAACAUCUUCGGAUGCAGAGGAGGCAGGCUUCGGUGGCGCGAUAGCGCCAACGUCCUCAACCUCCAAUGCAUCCCUCCACAUGAUGAUGCUUGAAGAGCCUUGGUUUUUUG [A100U C115U] | -2.94 |
| GACCAAUCUGCCCUCAGAGCUCGAGAACAUCUUCGGAUGCAGAGGAGGCAGGCUUCGGUGGCGCGAUAGCGCCAACGUCCUCAACCUCCAAUGCAUCCCCCCACAUGAUGAUGCCUGAAUAGCCCUGGUUUUUUG [A100C G120U U125C] | -0.56 |
| GACCAAUCUGCCCUCAGAGCUCGAGAACAUCUUCGGAUGCAGAGGAGGCAGGCUUCGGUGGCGCGAUAGCGCCAACGUCCUCAACCUCCAAUGCAUCCCCCCACAUGAUUAAGCCUGAAGAGCCUUGGUUUUUUG [A100C G110U U112A] | -5.07 |
| GACCAAUCUGCCCUCAGAGCUCGAGAACAUCUUCGGAUGCAGAGGAGGCAGGCUUCGGUGGCGCGAUAGCGCCAACGUCCUCAACCUCCAAUGCAUCCCUCCACAUGAUUAUGCCUGAAGAGCCUUGGUUUUUUG [A100U G110U] | -2.67 |
| GACCAAUCUGCCCUCAGAGCUCGAGAACAUCUUCGGAUGCAGAGGAGGCAGGCUUCGGUGGCGCGAUAGCGCCAACGUCCUCAACCUCCAAUGCAUCCUACCACAUGAUGAUGCCUGAAGAGCAUUGGUUUUUUG [C99U C124A] | -1.1 |
| GACCAAUCUGCCCUCAGAGCUCGAGAACAUCUUCGGAUGCAGAGGAGGCAGGCUUCGGUGGCGCGAUAGCGCCAACGUCCUCAACCUCCAAUGCAUCCGACCACAUGAUGACGCCUGAAGAGCCUUGGUUUUAUG [C99G U112C U133A] | -6.59 |
| GACCAAUCUGCCCUCAGAGCUCGAGAACAUCUUCGGAUGCAGAGGAGGCAGGCUUCGGUGGCGCGAUAGCGCCAACGUCCUCAACCUCCAAUGCAUCCUACCACAUGAUUAUGCCUGAAGGGCCUUGGUUUUUUG [C99U G110U A121G] | -5.37 |
| GACCAAUCUGCCCUCAGAGCUCGAGAACAUCUUCGGAUGCAGAGGAGGCAGGCUUCGGUGGCGCGAUAGCGCCAACGUCCUCAACCUCCAAUGCAUCACACCACAUGAUGAUGCCUGAAGAGCGUUGAUUUUGUG [C98A C124G G128A U133G] | -6.31 |
